One block for each binder: values may come before it.
Experiments:
human MSLN-R3 protein [1] = target: T1, human MSLN-R3 protein (human, UniProt Q13421 487-598); assay: ELISA, MSLN-R3 coated, antibody 1 nM
T1 construct: also called hMSLN-R3

[2] = target: T2, monkey MSLN on HEK293T-monkey MSLN recombinant cells (monkey); assay: FACS, HEK293T-monkey MSLN cells
T2 construct: Full-length precursor as transfected; processing on the cell is not described; also called HEK293-monkey MSLN
T2 chain: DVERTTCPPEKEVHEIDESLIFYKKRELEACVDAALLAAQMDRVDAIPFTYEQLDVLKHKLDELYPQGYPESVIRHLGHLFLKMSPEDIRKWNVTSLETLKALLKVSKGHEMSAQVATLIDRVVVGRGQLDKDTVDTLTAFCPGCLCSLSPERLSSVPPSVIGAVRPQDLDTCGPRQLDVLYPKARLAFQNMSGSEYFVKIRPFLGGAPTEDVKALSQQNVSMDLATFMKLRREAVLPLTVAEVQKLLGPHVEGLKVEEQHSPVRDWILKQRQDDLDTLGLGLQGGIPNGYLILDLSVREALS

[3] = target: T3, human MSLN on OVCAR3 tumor cells (human, UniProt Q13421 296-598); assay: FACS, OVCAR3 cells
T3 construct: whole, on cells; also called human MSLN protein
T3 sequence (Q13421 other isoform, or with tags, fused parts or gaps): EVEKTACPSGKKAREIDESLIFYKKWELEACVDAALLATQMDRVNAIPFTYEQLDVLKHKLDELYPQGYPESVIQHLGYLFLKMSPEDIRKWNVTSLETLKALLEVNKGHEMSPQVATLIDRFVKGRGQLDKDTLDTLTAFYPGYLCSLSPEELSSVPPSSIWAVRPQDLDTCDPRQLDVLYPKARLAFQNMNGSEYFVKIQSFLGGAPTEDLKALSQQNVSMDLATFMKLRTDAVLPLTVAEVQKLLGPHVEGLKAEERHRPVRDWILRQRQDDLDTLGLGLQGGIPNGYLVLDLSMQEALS

human MSLN-R3 protein [4] = target: T1, human MSLN-R3 protein; assay: ELISA, MSLN-R3 coated, antibody 0.0001 nM
[5] = target: T4, human MSLN-R3 on HEK293T-hMSLN-R3 recombinant cells (human, UniProt Q13421 487-606); assay: FACS, HEK293T-hMSLN-R3 cells
T4 construct: the C-terminal limit is uncertain; also called human MSLN-R3 membrane protein
T4 sequence (Q13421 495-614): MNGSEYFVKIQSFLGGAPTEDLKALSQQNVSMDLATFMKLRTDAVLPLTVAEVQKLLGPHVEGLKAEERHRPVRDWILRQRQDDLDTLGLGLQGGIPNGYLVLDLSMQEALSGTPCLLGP

human MSLN-R3 protein [6] = target: T1, human MSLN-R3 protein; assay: ELISA, MSLN-R3 coated, antibody 10 nM
human MSLN-R3 protein [7] = target: T1, human MSLN-R3 protein; assay: ELISA, MSLN-R3 coated, antibody 0.001 nM
human MSLN-R3 protein [8] = target: T1, human MSLN-R3 protein; assay: ELISA, MSLN-R3 coated, antibody 100 nM
human MSLN-R3 protein [9] = target: T1, human MSLN-R3 protein; assay: ELISA, MSLN-R3 coated, antibody 0.1 nM
human MSLN-R3 protein [10] = target: T1, human MSLN-R3 protein; assay: ELISA, MSLN-R3 coated, antibody 0.01 nM
[11] = target: T5, human MSLN-hFc recombinant protein (human, UniProt Q13421 296-580); assay: SPR (Biacore 8K), MSLN-hFc captured, antibody injected
T5 construct: Captured by an anti-human IgG antibody on the chip; also called human MSLN protein; Acro MSN-H5253
T5 sequence (Q13421 other isoform, or with tags, fused parts or gaps): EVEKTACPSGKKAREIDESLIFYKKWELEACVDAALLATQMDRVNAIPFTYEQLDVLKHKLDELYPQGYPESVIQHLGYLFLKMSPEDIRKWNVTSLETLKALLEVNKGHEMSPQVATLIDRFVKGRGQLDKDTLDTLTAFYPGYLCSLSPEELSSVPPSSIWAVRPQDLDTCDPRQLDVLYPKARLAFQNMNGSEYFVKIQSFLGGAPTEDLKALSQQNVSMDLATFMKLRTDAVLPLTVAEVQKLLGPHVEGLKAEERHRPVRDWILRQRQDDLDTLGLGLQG

[12] = target: T6, human MSLN-R3-his protein (human, UniProt Q13421 487-598); assay: ELISA; antibody 10 nM
T6 construct: also called hMSLN-R3-his; not shown: His tag
T6 sequence (Q13421 495-606): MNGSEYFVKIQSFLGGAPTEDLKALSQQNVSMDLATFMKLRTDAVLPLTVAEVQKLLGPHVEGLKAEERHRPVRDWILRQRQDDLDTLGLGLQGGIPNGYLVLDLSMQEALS

[13] = target: T7, human MSLN-R2-his protein (human, UniProt Q13421 391-486); assay: ELISA; antibody 1 nM
T7 construct: also called hMSLN-R2-his; not shown: His tag
T7 sequence (Q13421 other isoform, or with tags, fused parts or gaps): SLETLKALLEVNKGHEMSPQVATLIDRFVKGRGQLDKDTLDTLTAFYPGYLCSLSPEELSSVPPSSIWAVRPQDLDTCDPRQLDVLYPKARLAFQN

[14] = target: T6, human MSLN-R3-his protein; assay: ELISA; antibody 1 nM
[15] = target: T8, human MSLN-R3-3 polypeptide (human); assay: ELISA; antibody 1 nM
T8 construct: also called hMSLN-R3-3

[16] = target: T7, human MSLN-R2-his protein; assay: ELISA; antibody 0.01 nM
[17] = target: T6, human MSLN-R3-his protein; assay: ELISA; antibody 0.01 nM
[18] = target: T7, human MSLN-R2-his protein; assay: ELISA; antibody 1 nM; remark: listed apart in the source
[19] = target: T6, human MSLN-R3-his protein; assay: ELISA; antibody 0 nM (blank)
[20] = target: T6, human MSLN-R3-his protein; assay: ELISA; antibody 0.0001 nM
[21] = target: T7, human MSLN-R2-his protein; assay: ELISA; antibody 100 nM
[22] = target: T7, human MSLN-R2-his protein; assay: ELISA; antibody 10 nM
[23] = target: T6, human MSLN-R3-his protein; assay: ELISA; antibody 100 nM
[24] = target: T7, human MSLN-R2-his protein; assay: ELISA; antibody 0.1 nM
[25] = target: T6, human MSLN-R3-his protein; assay: ELISA; antibody 1 nM; remark: listed apart in the source
[26] = target: T7, human MSLN-R2-his protein; assay: ELISA; antibody 0.001 nM
[27] = target: T7, human MSLN-R2-his protein; assay: ELISA; antibody 0.0001 nM
[28] = target: T7, human MSLN-R2-his protein; assay: ELISA; antibody 0 nM (blank)
[29] = target: T6, human MSLN-R3-his protein; assay: ELISA; antibody 0.001 nM
[30] = target: T6, human MSLN-R3-his protein; assay: ELISA; antibody 0.1 nM
[31] = target: T9, human MSLN-FL-his protein (human, UniProt Q13421 296-580); assay: ELISA
T9 construct: also called hMSLN-FL-his; human MSLN full-length protein

[32] = target: T10, human MSLN-R1-his protein (human, UniProt Q13421 296-390); assay: ELISA, antibody 0 nM (blank)
T10 construct: also called hMSLN-R1-his; human MSLN-R1 protein
T10 chain: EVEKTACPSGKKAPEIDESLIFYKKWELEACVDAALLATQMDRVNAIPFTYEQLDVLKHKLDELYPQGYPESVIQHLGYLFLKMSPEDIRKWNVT

[33] = target: T10, human MSLN-R1-his protein; assay: ELISA, antibody 10 nM
[34] = target: T10, human MSLN-R1-his protein; assay: ELISA, antibody 0.1 nM
[35] = target: T10, human MSLN-R1-his protein; assay: ELISA, antibody 0.0001 nM
[36] = target: T10, human MSLN-R1-his protein; assay: ELISA, antibody 100 nM
[37] = target: T10, human MSLN-R1-his protein; assay: ELISA, antibody 0.001 nM
[38] = target: T10, human MSLN-R1-his protein; assay: ELISA, antibody 1 nM
[39] = target: T10, human MSLN-R1-his protein; assay: ELISA, antibody 0.01 nM

T1 sequence (Q13421 495-606): as the sequence (Q13421 495-606) above

B1: F3.38.10-L1H5 (scFv, not shown: small tags and cut ends)
scFv: DIVMTQTPLSLPVTPGEPASISCRSSQSLIHSDGNTYLQWYLQKPGQSPQLLIYKVSNRFSGVPDRFSGSGSGTDFTLKISRVEAEDVGVYYCSQTTHVPFTFGQGTKLEIKGGGGSGGGGSGGGGSEVQLVQSGAEVKKPGASVKVSCKASGYIFTDYYMNWVRQAHGQRLEWMGVINPKNGVISHNQKFKGRVTITVDKSANTAYMELSSLRSEDTAVYYCANYGSRFYAMDYWGQGTTVTVSS
notes: also called S009-F3.38.10 humanized antibody VL1 + VH5
OD450 nm (human MSLN-R3 protein [1]): 0.27 OD
EC50 [2]: 90.1 nM
EC50 [3]: 99.8 nM
OD450 nm (human MSLN-R3 protein [4]): 0.07 OD
EC50 [5]: 12 nM
Maximum_MFI [5]: 1280 MFI
OD450 nm (human MSLN-R3 protein [6]): 1.19 OD
OD450 nm (human MSLN-R3 protein [7]): 0.07 OD
OD450 nm (human MSLN-R3 protein [8]): 2.36 OD
OD450 nm (human MSLN-R3 protein [9]): 0.08 OD
OD450 nm (human MSLN-R3 protein [10]): 0.07 OD
binding result [11]: no binding

B2: Tab020 (YP223, rabbitIgG1) (antibody, V domains shown)
VH: QEQLEESGGDLVQPEGSLTLTCKASGLDFSSSYWICWVRQAPGKGLEWIGCRHTFTANTWSASWVNGRFTISRSTSLGTVDLKMTSLTAADTATYFCARDESNNDGWDFKLWGPGTLVTVSS
VL: AYDMTQTPASVSAAVGGTVTIKCQASQSISNYLAWYQQKPGQPPKLLIYQASTLAPGVSSRFKGSGSGTEFTLTISGVECADAATYYCQQGYTSSNVENVFGGGTGVVVGD
notes: Control antibody; VH and VL recombined into rabbit IgG1 CH and CL expression vectors; also called YP223 rabbit IgG1 antibody; rabbit anti-human MSLN antibody
OD450 nm [12]: 0.05
OD450 nm [13]: 1.49
OD450 nm [14]: 0.05
OD450 nm [15]: 0.09
OD450 nm [16]: 0.07
OD450 nm [17]: 0.05
OD450 nm [18]: 1.49
OD450 nm [19]: 0.05
OD450 nm [20]: 0.05
OD450 nm [21]: 2.5
OD450 nm [22]: 2.01
OD450 nm [23]: 0.05
OD450 nm [24]: 0.2
OD450 nm [25]: 0.05
OD450 nm [26]: 0.05
OD450 nm [27]: 0.05
OD450 nm [28]: 0.05
OD450 nm [29]: 0.05
OD450 nm [30]: 0.05

Results, then the binder that gave them:

binding result [31]: no binding (tested: up to 100 nM)
B3: S009-F3.38.10 (antibody, human IgG1, kappa, V domains shown)
VH: EVQLQQSGPVLVKPGASVKMSCEASGYIFTDYYMNWVKKSHGKSLEWIGVINPKNGVISHNQKFKGKATLTVDKSSNTAYMELSSLTSEDSAVYYCANYGSRFYAMDYWGQGTSVTVSS
VL: DVVMTQTPLSLPVSLGDQASISCRSSQSLIHSDGNTYLQWYLQKSGQSPKLLIYKVSNRFSGVPDRFSGSGSGTDFTLKISRVETEDLGVYFCSQTTHVPFTFGSGTKLEIKR
notes: chimeric, human IgG1/kappa

OD450 nm [32]: 0.05
OD450 nm [33]: 0.06
OD450 nm [34]: 0.05
OD450 nm [35]: 0.04
OD450 nm [36]: 0.08
OD450 nm [37]: 0.05
OD450 nm [38]: 0.05
OD450 nm [39]: 0.06
B4: Tab107 (YP3, hIgG1) (antibody, V domains shown)
VH: QEQLVESGGGLVQPGASLTLTCTASGIDFSRYYMCWVRQAPGKGLEGIACIYIGGSGSTYYASWAKGRFTISKASSTTVTLQMTSLTAADTATYFCARGTNLNYIFRLWGPGTLVTVSS
VL: DVVMTQTPSPVSAAVGGTVTIKCQASQSINNGLAWYQQKPGQPPRLLIYSASNLESGVPSRFKGSGSGTEFTLTISDLECDDAATYYCQCIWDGNSYVNAFGGGTEVVVRT
notes: also called YP3 human IgG1 antibody

Source: patent publication US20250250357A1 (NANJING ZAIMING PHARMACEUTICAL, published 2025)
